In IntAct's records for PubMed 12626716:

B1: mRNA 3'-end-processing protein YTH1 (Saccharomyces cerevisiae), Q06102 (parent)
chain: MSLIHPDTAKYPFKFEPFLRQEYSFSLDPDRPICEFYNSREGPKSCPRGPLCPKKHVLPIFQNKIVCRHWLRGLCKKNDQCEYLHEYNLRKMPECVFFSKNGYCTQSPDCQYLHIDPASKIPKCENYEMGFCPLGSSCPRRHIKKVFCQRYMTGFCPLGKDECDMEHPQFIIPDEGSKLRIKRDDEINTRKMDEEKERRLNAIINGEV
partner: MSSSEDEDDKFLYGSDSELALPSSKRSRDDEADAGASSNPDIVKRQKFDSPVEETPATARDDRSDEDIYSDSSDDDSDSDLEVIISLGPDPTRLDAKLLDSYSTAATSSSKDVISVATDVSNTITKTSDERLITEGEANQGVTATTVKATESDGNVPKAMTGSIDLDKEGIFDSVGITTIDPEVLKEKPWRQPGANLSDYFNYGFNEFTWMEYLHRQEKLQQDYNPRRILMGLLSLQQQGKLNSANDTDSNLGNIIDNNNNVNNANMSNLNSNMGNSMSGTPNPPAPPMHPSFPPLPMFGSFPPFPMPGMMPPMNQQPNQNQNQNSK

Variants of: B1
Conditions: with fip1_yeast FIP1, P45976

Question: MSLIHPDTAKYPFKFEPFLRQEYSFSLDPDRPICEFYNSREGPKSCPRGPLCPKKHVLPIFQNKIVCRHWLRGLCKKNDQCEYLHEYNLRKMPECVFFSKNGYCTQSPDCQYLHIDPASKIPKCENYEMRFCPLGSSCPRRHIKKVFCQRYMTGFCPLGKDECDMEHPQFIIPDEGSKLRIKRDDEINTRKMDEEKERRLNAIINGEV [G130R] was tested. Which “effect of a mutation on the interaction” value did it give?
Answer: decreasing interaction
